Reference: US20030199671A1, “Binding molecules for Fc-region polypeptides” (priority 2001, published 2003)
Like-named read-outs stand apart in the source and are kept apart here.

What was measured:
[1] = molecular target: IgG4 (Homo sapiens, UniProt P01861); assay type: binding; design: all human subtypes derived from myeloma patients; purchased Calbiochem 400126; host or cells: myeloma patients
Summary of the method: (§1)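 Read-out is A280 of unbound IgG (1.4 mg/ml extinction coefficient), with percent bound derived against non-filtered or negative controls. Targets were incubated with immobilized peptides in PBST or TBST for 1-1.5 h at room temperature. Hydrolyzed Sepharose and immobilized Protein A serve as negative and positive controls.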

[2] = system: bovine IgG; assay type: binding
Summary of the method: (§2)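 Static batch binding on immobilized peptide resin: unfractionated IgGs in PBST (pH 7.2) or TBST (pH 7.5), 1–1.5 h shaking at room temperature. Unbound IgG quantified by A280 against a buffer blank; percent bound from non-filtered or negative-control values. Elution at pH 8.5 bicarbonate and/or pH 4.0 citrate, expressed as percent of load.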

[3] = molecular target: T1, human IgG1 (Homo sapiens, UniProt P01857); assay type: binding
T1 construct: all human subtypes derived from myeloma patients; purchased Calbiochem 400120; host or cells: myeloma patients
Summary of the method: as §1

[4] = molecular target: T2, human IgG2 (Homo sapiens, UniProt P01859); assay type: binding
T2 construct: all human subtypes derived from myeloma patients; purchased Calbiochem 400122; host or cells: myeloma patients
Summary of the method: as §1

[5] = system: goat IgG; assay type: binding
Summary of the method: as §2

[6] = system: human IgG; assay type: binding
Summary of the method: as §2

[7] = system: mouse IgG; assay type: binding
Summary of the method: as §2

[8] = system: human IgG; assay: Dynamic (mini-column) binding capacity
[9] = molecular target: IgG3 (Homo sapiens, UniProt P01860); assay type: binding; design: all human subtypes derived from myeloma patients; purchased Calbiochem 400124; host or cells: myeloma patients
Summary of the method: as §1

[10] = Table 9, immobilized peptide, 5.0 mg/ml resin load
[11] = Table 10, elution 0.1 M sodium bicarbonate buffer, pH 8.5
[12] = Table 10, elution 0.1 M sodium citrate buffer, pH 4.0
[13] = Table 13, average ligand density 1.8 μM/ml
[14] = Table 14, average ligand density 1.8 μM/ml

Sequence of IgG3 (P01860 1-377 isoform P01860-1): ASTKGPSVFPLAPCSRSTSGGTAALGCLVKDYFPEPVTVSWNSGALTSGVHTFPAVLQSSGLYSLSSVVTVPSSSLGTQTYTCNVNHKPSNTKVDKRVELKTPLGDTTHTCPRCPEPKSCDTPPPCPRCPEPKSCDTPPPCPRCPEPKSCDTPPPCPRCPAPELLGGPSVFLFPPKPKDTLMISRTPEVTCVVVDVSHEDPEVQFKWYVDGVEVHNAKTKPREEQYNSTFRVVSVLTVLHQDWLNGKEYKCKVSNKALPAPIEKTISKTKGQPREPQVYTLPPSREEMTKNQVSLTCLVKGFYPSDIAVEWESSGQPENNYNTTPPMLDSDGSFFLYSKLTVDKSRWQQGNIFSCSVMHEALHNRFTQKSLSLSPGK
Sequence of IgG4 (P01861 1-327 isoform P01861-1): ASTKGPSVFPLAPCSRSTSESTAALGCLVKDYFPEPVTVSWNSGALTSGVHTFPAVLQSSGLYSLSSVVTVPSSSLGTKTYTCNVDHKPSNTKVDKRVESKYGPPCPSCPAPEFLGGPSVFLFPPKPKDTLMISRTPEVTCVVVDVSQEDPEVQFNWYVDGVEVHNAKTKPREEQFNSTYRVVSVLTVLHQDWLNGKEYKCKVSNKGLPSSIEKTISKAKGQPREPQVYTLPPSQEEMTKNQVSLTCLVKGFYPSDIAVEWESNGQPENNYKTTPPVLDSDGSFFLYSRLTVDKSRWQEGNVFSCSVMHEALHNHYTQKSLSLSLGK
T2 sequence (P01859 1-326 isoform P01859-1): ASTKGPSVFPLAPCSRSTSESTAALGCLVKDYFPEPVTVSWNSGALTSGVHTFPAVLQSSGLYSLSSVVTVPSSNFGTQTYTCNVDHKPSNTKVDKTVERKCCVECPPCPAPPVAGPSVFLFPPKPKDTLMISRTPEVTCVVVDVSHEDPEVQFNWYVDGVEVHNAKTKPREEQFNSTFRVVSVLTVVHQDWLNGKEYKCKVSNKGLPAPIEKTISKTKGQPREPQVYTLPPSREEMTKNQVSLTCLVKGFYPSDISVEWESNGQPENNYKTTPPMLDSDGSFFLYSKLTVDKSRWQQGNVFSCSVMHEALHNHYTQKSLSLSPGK
T1 sequence (P01857 1-330 isoform P01857-1): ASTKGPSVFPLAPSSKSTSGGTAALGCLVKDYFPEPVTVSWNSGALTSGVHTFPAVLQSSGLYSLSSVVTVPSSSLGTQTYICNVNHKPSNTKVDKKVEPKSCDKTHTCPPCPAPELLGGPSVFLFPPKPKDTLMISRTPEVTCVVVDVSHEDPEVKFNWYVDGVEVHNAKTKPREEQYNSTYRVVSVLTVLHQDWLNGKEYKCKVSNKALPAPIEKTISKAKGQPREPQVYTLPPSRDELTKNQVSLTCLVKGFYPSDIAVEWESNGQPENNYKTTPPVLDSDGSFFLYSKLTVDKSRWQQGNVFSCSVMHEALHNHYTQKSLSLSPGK

With “Prot. A: immobilized recombinant Protein A (RepliGen Corp., product no. IPA-400), positive control [reference compound]” the “% IgG Capture - Batch Binding, Human IgG4” value [1, 10] was 96%, the “Human IgG4 bdg % (% of Total Load)” value ([1]; Table 10, batch binding) was 92% and the “Human IgG4 elu pH 8.5 (% of Total Load)” value [1, 11] was 2%. For the same substance, the “Human IgG4 elu pH 4.0 (% of Total Load)” value [1, 12] was 95%, the “hIgG4 elution pH 2.5 (% of Total Load)” value ([1]; Table 13) was 70% and the “hIgG4 elution pH 3.0 (% of Total Load)” value ([1]; Table 13) was 77%. For the same substance, the “hIgG4 elution pH 3.5 (% of Total Load)” value ([1]; Table 13) was 87%, the “hIgG4 elution pH 4.5 (% of Total Load)” value ([1]; Table 13) was 27% and the “hIgG4 elution pH 5.5 (% of Total Load)” value ([1]; Table 13) was 6%. For the same substance, the “hIgG4 elution pH 9.0 (% of Total Load)” value ([1]; Table 13) was 7%, the “hIgG4 elution pH 9.5 (% of Total Load)” value ([1]; Table 13) was 8% and the “hIgG4 Bound (% of Total Load)” value [1, 13] was 89%. The “% IgG Capture - Batch Binding, Bovine IgG” value ([2]; Table 11, unfractionated IgG) was 72%, the “% IgG Capture - Batch Binding, Bovine IgG” value [2, 14] was 60% and the “% IgG Capture - Batch Binding, Human IgG1” value [3, 10] was 95%. The “Human IgG1 bdg % (% of Total Load)” value ([3]; Table 10, batch binding) was 93%, the “Human IgG1 elu pH 8.5 (% of Total Load)” value [3, 11] was 2% and the “Human IgG1 elu pH 4.0 (% of Total Load)” value [3, 12] was 79%. For the same substance, the “hIgG1 elution pH 2.5 (% of Total Load)” value ([3]; Table 13) was 80%, the “hIgG1 elution pH 3.0 (% of Total Load)” value ([3]; Table 13) was 80% and the “hIgG1 elution pH 3.5 (% of Total Load)” value ([3]; Table 13) was 86%. The “hIgG1 elution pH 4.5 (% of Total Load)” value ([3]; Table 13) was 29%, the “hIgG1 elution pH 5.5 (% of Total Load)” value ([3]; Table 13) was 3% and the “hIgG1 elution pH 9.0 (% of Total Load)” value ([3]; Table 13) was 3%. For the same substance, the “hIgG1 elution pH 9.5 (% of Total Load)” value ([3]; Table 13) was 3%, the “hIgG1 Bound (% of Total Load)” value [3, 13] was 96% and the “% IgG Capture - Batch Binding, Human IgG2” value [4, 10] was 92%. The “Human IgG2 bdg % (% of Total Load)” value ([4]; Table 10, batch binding) was 93%, the “Human IgG2 elu pH 8.5 (% of Total Load)” value [4, 11] was 8% and the “Human IgG2 elu pH 4.0 (% of Total Load)” value [4, 12] was 75%. The “hIgG2 elution pH 2.5 (% of Total Load)” value ([4]; Table 13) was 75%, the “hIgG2 elution pH 3.0 (% of Total Load)” value ([4]; Table 13) was 75% and the “hIgG2 elution pH 3.5 (% of Total Load)” value ([4]; Table 13) was 76%. For the same substance, the “hIgG2 elution pH 4.5 (% of Total Load)” value ([4]; Table 13) was 65%, the “hIgG2 elution pH 5.5 (% of Total Load)” value ([4]; Table 13) was 22% and the “hIgG2 elution pH 9.0 (% of Total Load)” value ([4]; Table 13) was 13%. The “hIgG2 elution pH 9.5 (% of Total Load)” value ([4]; Table 13) was 18%, the “hIgG2 Bound (% of Total Load)” value [4, 13] was 85% and the “% IgG Capture - Batch Binding, Goat IgG” value ([5]; Table 11, unfractionated IgG) was 23%. The “% IgG Capture - Batch Binding, Goat IgG” value [5, 14] was 20%, the “% IgG Capture - Batch Binding, Human IgG” value ([6]; Table 11, unfractionated IgG) was 86% and the “% IgG Capture - Batch Binding, Human IgG” value [6, 14] was 81%. For the same substance, the “% IgG Capture - Batch Binding, Mouse IgG” value ([7]; Table 11, unfractionated IgG) was 77%, the “% IgG Capture - Batch Binding, Mouse IgG” value [7, 14] was 69% and the “Capacity at 10% breakthrough as % of total dynamic capacity” value [8] was “about 75%”. For the same substance, the “Capacity (mg IgG/mL resin) 10% Breakthrough” value ([8]; Ligand Density not determined) was 12.9 mg IgG/mL resin, the “Capacity (mg IgG/mL resin) Total Dynamic” value ([8]; Ligand Density not determined) was 16.3 mg IgG/mL resin and the “% IgG Capture - Batch Binding, Human IgG3” value [9, 10] was 1%. For the same substance, the “Human IgG3 bdg % (% of Total Load)” value ([9]; Table 10, batch binding) was 5%, the “Human IgG3 elu pH 8.5 (% of Total Load)” value [9, 11] was 0% and the “Human IgG3 elu pH 4.0 (% of Total Load)” value [9, 12] was 0%. For the same substance, the “hIgG3 elution pH 2.5 (% of Total Load)” value ([9]; Table 13) was 0%, the “hIgG3 elution pH 3.0 (% of Total Load)” value ([9]; Table 13) was 0% and the “hIgG3 elution pH 3.5 (% of Total Load)” value ([9]; Table 13) was 0%. For the same substance, the “hIgG3 elution pH 4.5 (% of Total Load)” value ([9]; Table 13) was 0%, the “hIgG3 elution pH 5.5 (% of Total Load)” value ([9]; Table 13) was 0% and the “hIgG3 elution pH 9.0 (% of Total Load)” value ([9]; Table 13) was 0%. For the same substance, the “hIgG3 elution pH 9.5 (% of Total Load)” value ([9]; Table 13) was 0% and the “hIgG3 Bound (% of Total Load)” value [9, 13] was 0%.
